In US20260209386A1 (MYTHIC THERAPEUTICS, published 2026):

T1: Human PTK7 Protein, His Tag, Acro Biosystems (human, UniProt Q13308 31-704)
T1 construct: Bought protein; also called CCK4; not shown: His tag
T1 sequence: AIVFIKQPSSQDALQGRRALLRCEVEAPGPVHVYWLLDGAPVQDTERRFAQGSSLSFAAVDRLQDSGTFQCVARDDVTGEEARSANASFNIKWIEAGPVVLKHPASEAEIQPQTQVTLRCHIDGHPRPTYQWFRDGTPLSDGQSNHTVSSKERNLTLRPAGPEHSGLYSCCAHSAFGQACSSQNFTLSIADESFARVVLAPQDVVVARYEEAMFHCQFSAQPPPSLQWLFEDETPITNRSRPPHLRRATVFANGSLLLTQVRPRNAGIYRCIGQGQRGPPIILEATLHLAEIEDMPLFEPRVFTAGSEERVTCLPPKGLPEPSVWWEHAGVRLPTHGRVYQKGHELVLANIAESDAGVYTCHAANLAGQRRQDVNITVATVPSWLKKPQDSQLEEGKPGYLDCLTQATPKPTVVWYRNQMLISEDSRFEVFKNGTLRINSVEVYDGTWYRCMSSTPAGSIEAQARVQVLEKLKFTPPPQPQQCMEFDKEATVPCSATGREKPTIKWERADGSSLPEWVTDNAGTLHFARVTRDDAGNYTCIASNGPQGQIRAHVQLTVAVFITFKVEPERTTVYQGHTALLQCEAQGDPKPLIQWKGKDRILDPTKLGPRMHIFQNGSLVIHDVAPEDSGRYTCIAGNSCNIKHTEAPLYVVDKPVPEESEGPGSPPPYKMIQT

B1: MYT11202 (antibody, V domains shown)
VH: EVQLVESGGGLVQPGGSLRLSCTASGIDLSSYVMGWVRQAPGKGLEWVGYIYGGGGTYYATHARGRFTISRDTSKNTVYLQMNSLRAEDTAVYFCARAAADFYFNLWGQGTLVTVSS
VL: EIVMTQSPSTLSASVGDRVIITCQASQSISSYLAWYQQKPGKAPKLLIYDISDLASGVPSRFSGSGSGAEFTLTISSLQPDDFATYYCQSYYWISNSGAAFGQGTKLTVL
notes: HC variant of MYT9460, sub at HCV pos 62 (H2 13)
B2: MYT11206 (antibody, V domains shown)
VH: EVQLVESGGGLVQPGGSLRLSCTASGIDLSSYVMGWVRQAPGKGLEWVGYIYGGGGTYYATWARGRFTISRDTSKNTVYLQMNSLRAEDTAVYFCHRAAADFYFNLWGQGTLVTVSS
VL: EIVMTQSPSTLSASVGDRVIITCQASQSISSYLAWYQQKPGKAPKLLIYDISDLASGVPSRFSGSGSGAEFTLTISSLQPDDFATYYCQSYYWISNSGAAFGQGTKLTVL
notes: HC variant of MYT9460, sub at HCV pos 96 (H3 01)
B3: MYT11220 (antibody, V domains shown)
VH: EVQLVESGGGLVQPGGSLRLSCTASGIDLSSYVMGWVRQAPGKGLEWVGYIYGGGGTYYATWARGRFTISRDTSKNTVYLQMNSLRAEDTAVYFCARAAADFYFNLWGQGTLVTVSS
VL: EIVMTQSPSTLSASVGDRVIITCHASQSISSYLAWYQQKPGKAPKLLIYDISDLASGVPSRFSGSGSGAEFTLTISSLQPDDFATYYCQSYYWISNSGAAFGQGTKLTVL
notes: LC variant of MYT9460, sub at LCV pos 24 (L1 01)
B4: MYT11231 (antibody, V domains shown)
VH: EVQLVESGGGLVQPGGSLRLSCTASGIDLSSYVMGWVRQAPGKGLEWVGYIYGGGGTYYATWARGRFTISRDTSKNTVYLQMNSLRAEDTAVYFCARAAADFYFNLWGQGTLVTVSS
VL: EIVMTQSPSTLSASVGDRVIITCQASQSISSYLAWYQQKPGKAPKLLIYHISDLASGVPSRFSGSGSGAEFTLTISSLQPDDFATYYCQSYYWISNSGAAFGQGTKLTVL
notes: LC variant of MYT9460, sub at LCV pos 50 (L2 01)
B5: MYT11226 (antibody, V domains shown)
VH: EVQLVESGGGLVQPGGSLRLSCTASGIDLSSYVMGWVRQAPGKGLEWVGYIYGGGGTYYATWARGRFTISRDTSKNTVYLQMNSLRAEDTAVYFCARAAADFYFNLWGQGTLVTVSS
VL: EIVMTQSPSTLSASVGDRVIITCQASQSIHSYLAWYQQKPGKAPKLLIYDISDLASGVPSRFSGSGSGAEFTLTISSLQPDDFATYYCQSYYWISNSGAAFGQGTKLTVL
notes: LC variant of MYT9460, sub at LCV pos 30 (L1 07)
B6: MYT11219 (antibody, V domains shown)
VH: EVQLVESGGGLVQPGGSLRLSCTASGIDLSSYVMGWVRQAPGKGLEWVGYIYGGGGTYYATWARGRFTISRDTSKNTVYLQMNSLRAEDTAVYFCARAAAAFYFNLWGQGTLVTVSS
VL: EIVMTQSPSTLSASVGDRVIITCQASQSISSYLAWYQQKPGKAPKLLIYDISDLASGVPSRFSGSGSGAEFTLTISSLQPDDFATYYCQSYYWISNSGAAFGQGTKLTVL
notes: HC variant of MYT9460, printed as H3 05 with HCV pos 101, new residue not marked
B7: MYT11209 (antibody, V domains shown)
VH: EVQLVESGGGLVQPGGSLRLSCTASGIDLSSYVMGWVRQAPGKGLEWVGYIYGGGGTYYATWARGRFTISRDTSKNTVYLQMNSLRAEDTAVYFCARAHADFYFNLWGQGTLVTVSS
VL: EIVMTQSPSTLSASVGDRVIITCQASQSISSYLAWYQQKPGKAPKLLIYDISDLASGVPSRFSGSGSGAEFTLTISSLQPDDFATYYCQSYYWISNSGAAFGQGTKLTVL
notes: HC variant of MYT9460, sub at HCV pos 99 (H3 04)
B8: MYT11208 (antibody, V domains shown)
VH: EVQLVESGGGLVQPGGSLRLSCTASGIDLSSYVMGWVRQAPGKGLEWVGYIYGGGGTYYATWARGRFTISRDTSKNTVYLQMNSLRAEDTAVYFCARHAADFYFNLWGQGTLVTVSS
VL: EIVMTQSPSTLSASVGDRVIITCQASQSISSYLAWYQQKPGKAPKLLIYDISDLASGVPSRFSGSGSGAEFTLTISSLQPDDFATYYCQSYYWISNSGAAFGQGTKLTVL
notes: HC variant of MYT9460, sub at HCV pos 98 (H3 03)
B9: MYT11228 (antibody, V domains shown)
VH: EVQLVESGGGLVQPGGSLRLSCTASGIDLSSYVMGWVRQAPGKGLEWVGYIYGGGGTYYATWARGRFTISRDTSKNTVYLQMNSLRAEDTAVYFCARAAADFYFNLWGQGTLVTVSS
VL: EIVMTQSPSTLSASVGDRVIITCQASQSISSHLAWYQQKPGKAPKLLIYDISDLASGVPSRFSGSGSGAEFTLTISSLQPDDFATYYCQSYYWISNSGAAFGQGTKLTVL
notes: LC variant of MYT9460, sub at LCV pos 32 (L1 09)
B10: MYT11218 (antibody, V domains shown)
VH: EVQLVESGGGLVQPGGSLRLSCTASGIALSSYVMGWVRQAPGKGLEWVGYIYGGGGTYYATWARGRFTISRDTSKNTVYLQMNSLRAEDTAVYFCARAAADFYFNLWGQGTLVTVSS
VL: EIVMTQSPSTLSASVGDRVIITCQASQSISSYLAWYQQKPGKAPKLLIYDISDLASGVPSRFSGSGSGAEFTLTISSLQPDDFATYYCQSYYWISNSGAAFGQGTKLTVL
notes: HC variant of MYT9460, sub at HCV pos 28 (H1 03), second variant at this position, new residue not marked
B11: MYT11205 (antibody, V domains shown)
VH: EVQLVESGGGLVQPGGSLRLSCTASGIDLSSYVMGWVRQAPGKGLEWVGYIYGGGGTYYATWARHRFTISRDTSKNTVYLQMNSLRAEDTAVYFCARAAADFYFNLWGQGTLVTVSS
VL: EIVMTQSPSTLSASVGDRVIITCQASQSISSYLAWYQQKPGKAPKLLIYDISDLASGVPSRFSGSGSGAEFTLTISSLQPDDFATYYCQSYYWISNSGAAFGQGTKLTVL
notes: HC variant of MYT9460, sub at HCV pos 65 (H2 16)
B12: MYT11203 (antibody, V domains shown)
VH: EVQLVESGGGLVQPGGSLRLSCTASGIDLSSYVMGWVRQAPGKGLEWVGYIYGGGGTYYATWHRGRFTISRDTSKNTVYLQMNSLRAEDTAVYFCARAAADFYFNLWGQGTLVTVSS
VL: EIVMTQSPSTLSASVGDRVIITCQASQSISSYLAWYQQKPGKAPKLLIYDISDLASGVPSRFSGSGSGAEFTLTISSLQPDDFATYYCQSYYWISNSGAAFGQGTKLTVL
notes: HC variant of MYT9460, sub at HCV pos 63 (H2 14)
B13: MYT11217 (antibody, V domains shown)
VH: EVQLVESGGGLVQPGGSLRLSCTASGIDLSSYVMGWVRQAPGKGLEWVGYIYGGGGTYYATWARGRFTISRDTSKNTVYLQMNSLRAEDTAVYYCARAAADFYFNLWGQGTLVTVSS
VL: EIVMTQSPSTLSASVGDRVIITCQASQSISSYLAWYQQKPGKAPKLLIYDISDLASGVPSRFSGSGSGAEFTLTISSLQPDDFATYYCQSYYWISNSGAAFGQGTKLTVL
B14: MYT11214 (antibody, V domains shown)
VH: EVQLVESGGGLVQPGGSLRLSCTASGIDLSSYVMGWVRQAPGKGLEWVGYIYGGGGTYYATWARGRFTISRDTSKNTVYLQMNSLRAEDTAVYFCARAAADFYHNLWGQGTLVTVSS
VL: EIVMTQSPSTLSASVGDRVIITCQASQSISSYLAWYQQKPGKAPKLLIYDISDLASGVPSRFSGSGSGAEFTLTISSLQPDDFATYYCQSYYWISNSGAAFGQGTKLTVL
notes: HC variant of MYT9460, sub at HCV pos 104 (H3 09)
B15: MYT11227 (antibody, V domains shown)
VH: EVQLVESGGGLVQPGGSLRLSCTASGIDLSSYVMGWVRQAPGKGLEWVGYIYGGGGTYYATWARGRFTISRDTSKNTVYLQMNSLRAEDTAVYFCARAAADFYFNLWGQGTLVTVSS
VL: EIVMTQSPSTLSASVGDRVIITCQASQSISHYLAWYQQKPGKAPKLLIYDISDLASGVPSRFSGSGSGAEFTLTISSLQPDDFATYYCQSYYWISNSGAAFGQGTKLTVL
notes: LC variant of MYT9460, sub at LCV pos 31 (L1 08)
B16: MYT11207 (antibody, V domains shown)
VH: EVQLVESGGGLVQPGGSLRLSCTASGIDLSSYVMGWVRQAPGKGLEWVGYIYGGGGTYYATWARGRFTISRDTSKNTVYLQMNSLRAEDTAVYFCAHAAADFYFNLWGQGTLVTVSS
VL: EIVMTQSPSTLSASVGDRVIITCQASQSISSYLAWYQQKPGKAPKLLIYDISDLASGVPSRFSGSGSGAEFTLTISSLQPDDFATYYCQSYYWISNSGAAFGQGTKLTVL
notes: HC variant of MYT9460, sub at HCV pos 97 (H3 02)
B17: MYT11215 (antibody, V domains shown)
VH: EVQLVESGGGLVQPGGSLRLSCTASGIDLSSYVMGWVRQAPGKGLEWVGYIYGGGGTYYATWARGRFTISRDTSKNTVYLQMNSLRAEDTAVYFCARAAADFYFHLWGQGTLVTVSS
VL: EIVMTQSPSTLSASVGDRVIITCQASQSISSYLAWYQQKPGKAPKLLIYDISDLASGVPSRFSGSGSGAEFTLTISSLQPDDFATYYCQSYYWISNSGAAFGQGTKLTVL
B18: MYT11216 (antibody, V domains shown)
VH: EVQLVESGGGLVQPGGSLRLSCTASGIDLSSYVMGWVRQAPGKGLEWVGYIYGGGGTYYATWARGRFTISRDTSKNTVYLQMNSLRAEDTAVYFCARAAADFYFNHWGQGTLVTVSS
VL: EIVMTQSPSTLSASVGDRVIITCQASQSISSYLAWYQQKPGKAPKLLIYDISDLASGVPSRFSGSGSGAEFTLTISSLQPDDFATYYCQSYYWISNSGAAFGQGTKLTVL
B19: MYT11223 (antibody, V domains shown)
VH: EVQLVESGGGLVQPGGSLRLSCTASGIDLSSYVMGWVRQAPGKGLEWVGYIYGGGGTYYATWARGRFTISRDTSKNTVYLQMNSLRAEDTAVYFCARAAADFYFNLWGQGTLVTVSS
VL: EIVMTQSPSTLSASVGDRVIITCQASHSISSYLAWYQQKPGKAPKLLIYDISDLASGVPSRFSGSGSGAEFTLTISSLQPDDFATYYCQSYYWISNSGAAFGQGTKLTVL
notes: LC variant of MYT9460, sub at LCV pos 27 (L1 04)

target: T1, Human PTK7 Protein, His Tag, Acro …; assay: BLI (Octet), antibody on anti-human Fc sensor, 50 nM PTK7, dissociation at pH 7.4 or 5.4; 2 = substantially similar binding relative to parent

Binding result, binds:
B1
B2
B3
B4
B5
B6
B7
B8
B9
B10
B11
B12
B13
B14
B15
B16
B17
B18
B19
